# T1: EGFP-PABPN1-10A-ΔCT (Homo sapiens, UniProt Q86U42 1-254)
# T1 sequence: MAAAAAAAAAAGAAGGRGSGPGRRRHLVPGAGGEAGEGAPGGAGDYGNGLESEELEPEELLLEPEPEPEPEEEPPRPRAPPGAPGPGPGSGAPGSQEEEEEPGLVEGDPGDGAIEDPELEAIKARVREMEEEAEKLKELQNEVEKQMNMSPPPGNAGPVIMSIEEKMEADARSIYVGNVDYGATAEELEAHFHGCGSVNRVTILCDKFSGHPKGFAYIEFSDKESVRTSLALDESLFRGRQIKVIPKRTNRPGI
# B1: Cy5-dA50 (ssDNA)
# DNA: AAAAAAAAAAAAAAAAAAAAAAAAAAAAAAAAAAAAAAAAAAAAAAAAAA
# Target: T1, EGFP-PABPN1-10A-ΔCT
# Assay: EMSA; 2 nM dA50, 0-5 uM protein; 50 mM Tris-HCl, 150 mM NaCl, 2 mM MgCl2, pH 7.5, 30 min at room temperature; 6% native gel
# Conditions: protein: recombinant; tags: N-terminal EGFP, C-terminal His; label: 5'-Cy5; single-stranded
binder,measurement,value
B1,binding result,binds

# Reference: publication PMC10403730, “PABPN1 aggregation is driven by Ala expansion and poly(A)-RNA binding, leading to CFIm25 sequestration that impairs alternative polyadenylation”
